B1: ΔNLS-p50 (residues 41-351) (domain or fragment, human, UniProt P19838 41-351, looked up)
chain: GPYLQILEQPKQRGFRFRYVCEGPSHGGLPGASSEKNKKSYPQVKICNYVGPAKVIVQLVTNGKNIHLHAHSLVGKHCEDGICTVTAGPKDMVVGFANLGILHVTKKKVFETLEARMTEACIRGYNPGLLVHPDLAYLQAEGGGDRQLGDREKELIRQAALQQTKEMDLSVVRLMFTAFLPDSTGSFTRRLEPVVSDAIYDSKAPNASNLKIVRMDRTAGCVTGGEEIYLLCDKVQKDDIQIRFYEEEENGGVWEGFGDFSPTDVHRQFAIVFKTPKYKDINITKPASVFVQLRRKSDLETSEPKPFLYYP
notes: NF-κB p50, human, residues 41-351, lacking the C-terminal NLS, untagged; also called p50-ΔNLS; source: E. coli BL21 DE3, purified (polyethyleneimine and ammonium sulfate precipitation, HiTrap SP, Superdex 200)
B4: NF-κB p65 (residues 1-306) (domain or fragment, human, UniProt Q04206 1-306, looked up)
chain: MDELFPLIFPAEPAQASGPYVEIIEQPKQRGMRFRYKCEGRSAGSIPGERSTDTTKTHPTIKINGYTGPGTVRISLVTKDPPHRPHPHELVGKDCRDGFYEAELCPDRCIHSFQNLGIQCVKKRDLEQAISQRIQTNNNPFQVPIEEQRGDYDLNAVRLCFQVTVRDPSGRPLRLPPVLSHPIFDNRAPNTAELKICRVNRNSGSCLGGDEIFLLCDKVQKEDIEVYFTGPGWEARGSFSQADVHRQVAIVFRTPPYADPSLQAPVRVSMQLRRPSDRELSEPMEFQYLPDTDDRHRIEEKRKRTY
notes: NF-κB p65 (RelA), human, residues 1-306 (Rel homology region with the C-terminal NLS), untagged; also called RelA; p65 RHR; source: E. coli BL21 DE3, purified (polyethyleneimine and ammonium sulfate precipitation, HiTrap SP, Superdex 200)
B6: NF-κB p50 (residues 1-366) (domain or fragment, human, UniProt P19838 1-366, looked up)
chain: MAEDDPYLGRPEQMFHLDPSLTHTIFNPEVFQPQMALPTDGPYLQILEQPKQRGFRFRYVCEGPSHGGLPGASSEKNKKSYPQVKICNYVGPAKVIVQLVTNGKNIHLHAHSLVGKHCEDGICTVTAGPKDMVVGFANLGILHVTKKKVFETLEARMTEACIRGYNPGLLVHPDLAYLQAEGGGDRQLGDREKELIRQAALQQTKEMDLSVVRLMFTAFLPDSTGSFTRRLEPVVSDAIYDSKAPNASNLKIVRMDRTAGCVTGGEEIYLLCDKVQKDDIQIRFYEEEENGGVWEGFGDFSPTDVHRQFAIVFKTPKYKDINITKPASVFVQLRRKSDLETSEPKPFLYYPEIKDKEEVQRKRQKL
notes: NF-κB p50, human, residues 1-366 (Rel homology region with the C-terminal NLS); also called p50 RHR; source: E. coli BL21 DE3, purified (Glutathione Resin, PreScission cleavage, Superdex 200)

Data set [1] has as its target ΔIBB-importin α1 (tag not told for this experiment) (human) (UniProt P52292). Put plainly: native gel or EMSA; increasing molar excess of pre-assembled p50/p65 added to a fixed 10 μg (~108 pmoles) of ΔIBB-importin α1 or α3; 1.5% agarose gel, 4 °C, 2 h at 50 V, Coomassie.
For data set [2], the target named is ΔIBB-importin α3 (tag not told for these experiments) (human) (UniProt O00629). Described as above.
Data set [3] has as its target ΔDBD-p50/p65 heterodimer (human) (UniProt P19838). Put plainly: SEC; trimeric complex assembled from purified ΔIBB-importin α3 and ΔDBD-p50/p65; peak fraction analysed by SDS-PAGE and native agarose gel.
The target in data set [4] is NF-κB p65/p65 homodimer (human) (UniProt Q04206). Put plainly: SEC-SAXS; pre-assembled NF-κB dimer:ΔIBB-importin α3 complexes at 4.5-6.6 mg/ml on Superdex 200 10/300 GL; 20 mM Tris-HCl pH 7.0-7.5, 0.15-0.175 M NaCl, glycerol, 0.5 mM TCEP, 4 °C; mass from volume of correlation. For orientation: In gel filtration, larger molecules generally elute earlier.
The target in data set [5] is NF-κB p50/p50 homodimer (human) (UniProt P19838). Described as above.
Data set [6] deals with T1, NF-κB p50/p65 heterodimer (human, UniProt P19838 1-366; Q04206 1-306).
T1 construct: NF-κB p50, human, residues 1-366; NF-κB p65 (RelA), human, residues 1-306, untagged; also called wild-type NF-κB; source: subunits from E. coli BL21 DE3, purified; assembled by incubating p50:p65 at 1:1.5 molar ratio; copies: 1 + 1
The description is as above.

In data set [7] the target is NF-κB p65/p65 homodimer (human) (UniProt Q04206). In words: ELISA; NF-κB hetero/homodimers (200 ng) coated on MaxiSorp plates; His-importin α 1000 to 0 nM in PBST, room temperature 1 h; anti-6xHis-HRP; one-site specific binding fit. (An ELISA detects its analyte on a solid surface through an enzyme-linked reagent.)
For data set [8], the target named is NF-κB p50/p50 homodimer (human) (UniProt P19838). The description is as above.
The target in data set [9] is T1, NF-κB p50/p65 heterodimer. The description is as above.
Data set [10] addresses p50/ΔNLS-p65 heterodimer (human) (UniProt P19838). Described as above.
Data set [11] concerns the molecule itself. In words: SEC; homodimeric NF-κB complexes concentrated and injected on Superdex 200 16/60 in 20 mM Tris-HCl pH 7.5, 150 mM NaCl, 5 mM β-mercaptoethanol, 2% glycerol.
Data set [12] deals with B4. Put plainly: assembly of heterodimers by co-incubation; purified p50 and p65 constructs incubated at 1:1.5 p50:p65 molar ratio, 25 °C 30 min, 37 °C 1 h, centrifuged at 12,000 x g. The following applies: both partners purified.
For data set [13], the target named is B6. The data set is described as above. Particulars: both partners purified.
The target in data set [14] is B1. The data set is described as above. Particulars: both partners purified.
Data set [15] deals with T1, NF-κB p50/p65 heterodimer. In words: native gel or EMSA; purified IκBα titrated against ~130 pmoles of pre-formed p50/p65 (Fig. 4a lanes 5-10); 1 h at 4 °C; 1.5% agarose gel. Particulars: both partners purified. A general note: Mobility shift assays separate free from complexed probe on a gel.

Sequence of ΔIBB-importin α3 (tag not told for these experiments) (human) (O00629 68-487, stated change not applied): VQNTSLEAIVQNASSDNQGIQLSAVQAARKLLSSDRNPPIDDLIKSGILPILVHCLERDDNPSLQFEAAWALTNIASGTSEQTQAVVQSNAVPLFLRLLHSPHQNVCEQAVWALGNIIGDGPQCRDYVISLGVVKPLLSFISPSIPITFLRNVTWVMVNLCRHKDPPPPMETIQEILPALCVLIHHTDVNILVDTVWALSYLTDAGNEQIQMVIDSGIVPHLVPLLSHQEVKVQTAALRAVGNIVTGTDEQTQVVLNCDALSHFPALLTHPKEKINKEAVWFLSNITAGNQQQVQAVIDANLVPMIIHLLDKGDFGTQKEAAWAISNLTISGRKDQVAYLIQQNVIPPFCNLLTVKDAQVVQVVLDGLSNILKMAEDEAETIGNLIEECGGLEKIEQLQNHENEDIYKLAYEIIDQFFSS

For the molecule “NF-κB p50/p65 heterodimer (from UniProt P19838 1-366; Q04206 1-306) (complex)”, the stoichiometry N in data set [1] and in [2] was 1 in each case.

“ΔIBB-importin α3 (tag not told for these experiments) (from UniProt O00629 68-487) (domain or fragment)”: the stoichiometry N in data set [3] was 1; in [4] it was 1; in data set [5] it was 2; in [6] it was 1.

Take “His-ΔIBB-importin α3 (from UniProt O00629 68-487) (domain or fragment)”: the Kd came to 35.2 nM in data set [7], 15.4 nM in [8], 45.8 nM in data set [9] and 59.6 nM in [10].

As for B1, the binding result in [11] is reported as “binds”.

B2: ΔDBD-p50 (residues 243-366) (domain or fragment, human, UniProt P19838 243-366, looked up)
chain: KAPNASNLKIVRMDRTAGCVTGGEEIYLLCDKVQKDDIQIRFYEEEENGGVWEGFGDFSPTDVHRQFAIVFKTPKYKDINITKPASVFVQLRRKSDLETSEPKPFLYYPEIKDKEEVQRKRQKL
notes: also called p50 dimerization domain; source: E. coli BL21 DE3, purified (Glutathione Resin, PreScission cleavage, Superdex 200)
As for B2, the binding result in data set [11] and in [12] was “binds” each time.

B3: ΔNLS-p65 (residues 1-290) (domain or fragment, human, UniProt Q04206 1-290, looked up)
chain: MDELFPLIFPAEPAQASGPYVEIIEQPKQRGMRFRYKCEGRSAGSIPGERSTDTTKTHPTIKINGYTGPGTVRISLVTKDPPHRPHPHELVGKDCRDGFYEAELCPDRCIHSFQNLGIQCVKKRDLEQAISQRIQTNNNPFQVPIEEQRGDYDLNAVRLCFQVTVRDPSGRPLRLPPVLSHPIFDNRAPNTAELKICRVNRNSGSCLGGDEIFLLCDKVQKEDIEVYFTGPGWEARGSFSQADVHRQVAIVFRTPPYADPSLQAPVRVSMQLRRPSDRELSEPMEFQYLP
notes: NF-κB p65 (RelA), human, residues 1-290 (stop codon at position D291), lacking the C-terminal NLS, untagged; source: E. coli BL21 DE3, purified (polyethyleneimine and ammonium sulfate precipitation, HiTrap SP, Superdex 200)
Take B3: the binding result in data set [11], in [13] and in data set [14] was “binds” throughout.

In the case of B4, the binding result in [11], in [13] and in data set [14] was “binds” throughout.

B5: ΔDBD-p65 (residues 191-316) (domain or fragment, human, UniProt Q04206 191-316, looked up)
chain: TAELKICRVNRNSGSCLGGDEIFLLCDKVQKEDIEVYFTGPGWEARGSFSQADVHRQVAIVFRTPPYADPSLQAPVRVSMQLRRPSDRELSEPMEFQYLPDTDDRHRIEEKRKRTYETFKSIMKKS
notes: also called p65 dimerization domain; source: E. coli BL21 DE3, purified (Glutathione Resin, PreScission cleavage, Superdex 200)
B5: the binding result in data set [11] is recorded as “binds”.

On to B6, for which the binding result in data set [11] is recorded as “binds”.

B7: IκBα (residues 67-287) (domain or fragment, UniProt P25963 67-287, looked up)
chain: KQQLTEDGDSFLHLAIIHEEKALTMEVIRQVKGDLAFLNFQNNLQQTPLHLAVITNQPEIAEALLGAGCDPELRDFRGNTPLHLACEQGCLASVGVLTQSCTTPHLHSILKATNYNGHTCLHLASIHGYLGIVELLVSLGADVNAQEPCNGRTALHLAVDLQNPDLVSLLLKCGADVNRVTYQGYSPYQLTWGRPSTRIQQQLGQLTLENLQMLPESEDEE
notes: IκBα, residues 67-287, untagged; source: recombinant, expressed and purified as previously described (pET-11a)
B7: the “stoichiometry N” value in data set [15] was found to be 1.

In general, stoichiometry N refers to the number of molecules, sites or subunits per partner or assembly. One may read the Kd as a measure of binding affinity in units of concentration. Read a low Kd as tighter binding.

These data come from article PMC8904830, “Differential recognition of canonical NF-κB dimers by Importin α3” (Nature Communications, 2022).
